Target: the molecule itself
Assay: gel and Western blot of high molecular weight species; purified recombinant GST-(GA)50 beside GST alone (Online Resource 1a); samples heated in Laemmli's buffer

B1: recombinant GST-(GA)50 protein (other, human)
chain: GAGAGAGAGAGAGAGAGAGAGAGAGAGAGAGAGAGAGAGAGAGAGAGAGAGAGAGAGAGAGAGAGAGAGAGAGAGAGAGAGAGAGAGAGAGAGAGAGAGA
notes: poly(GA) c9RAN dipeptide repeat, 50 repeats; (GA)50 cDNA in pGEX-6P-1 (BamHI/XhoI); RAN-translated from the G4C2 repeat of C9ORF72, not part of the C9ORF72 protein; also called poly(GA); source: E. coli Rosetta(DE3)pLysS, purified (Glutathione Sepharose 4B, eluted with glutathione, dialysed); not shown: GST, N-terminal, kept
binding result: binds

Reference: PMC4159567, “Aggregation-prone c9FTD/ALS poly(GA) RAN-translated proteins cause neurotoxicity by inducing ER stress” (Acta Neuropathologica, 2014)
